Measured values from publication PMC8852740, “Neutralization of Typhoid Toxin by Alpaca-Derived, Single-Domain Antibodies Targeting the PltB and CdtB Subunits” (Infection and Immunity, 2021).
Where a chain is given by its changes, count along the chain named.

B1: T2C1 (VHH)
VHH: QVQLVETGGGLVQAGGSLRLSCAASGRTFSGDAMGWFRQAPGKEREFVAAISWNGGSTDYADSVKGRFTISRDAKNTVYLQMNSLKPEDTAVYYCASSREDYGSSFLRGSYDYLGQGTQVTVSS
B2: T2B6 (VHH)
VHH: QLQLAESGGGLVQAGDSLRLSCADSGRTFSDYAMGWFRQAPGKEREFVAAISWNGRSTYYIEAVKDRFTISRDNAKKTLYLQMNSLKPEDTAVYYCAAAREDYGSSLVKGSADYWGQGTQVTVSS
B3: T2A1 (VHH)
VHH: QVQLVESGGGLVQAGGSLRLTCAGSGRTFSGDVMGWFRQAPGKEREFVAAISYNGGSTYYADSVKGRFTISRDNAKNTVYLQMDGLKPGDTAVYYCASSREDYGSSLAKGSYDYWGQGTQVTVSS
B4: T2A2 (VHH)
VHH: QVQLAETGGGLVQPGGSLRLSCAVSGFMVNSYDIGWFRQAPGKEREGVSCISSSGGATHYVDSVKGRFTISRDNAKNMVYLQMNSLKPEDTATYYCAANRMTRCSDYHGYPFWGQGTQVTVSS
B5: T2E8 (VHH)
VHH: QVQLAESGGGSVQAGGSLRLSCAASGLTFDKYAIGWFRQAPGKGREMVSCINTNYGSTYYADSVKGRFTISSDTAKNTVYLQMNSLSPEDTAVYYCAADTRSSWPSCNALDTWGQGTLVTVSS
B6: T2A3 (VHH)
VHH: B5 VHH with S11L, G44E, M47L, N52S, T58P, T74N, S87K, T112A, W113R
B7: T2A7 (VHH)
VHH: QVQLVETGGGLVQTGGSLRLSCAASGFTFDDFAIGWFRQAPGKEREWVSCISSRNGSPYYADSVKGRFTISSDNAKNTVYLQMNSLKPEDTAVYYCKADTDSIVPSCNALDTWGQGTLVTVSS
B8: T2B2 (VHH)
VHH: QLQLAESGGGLVQAGGSLRLSCAASGRTFNTLHLAWFRQAPGNERDFVASISGSLGSLHYADSVKGRFTISRDNANNTVYLQMNSLKLEDTAVYYCAGAPIYDRFSSSSSSYDYWGQGTQVTVSS
B9: T2B4 (VHH)
VHH: QVQLVETGGALVQTGGSLRLSCAVSGRSSSTQGLGWYRQAPGKEREFVATINWISGATYYSDSVKGRFSISRDNAENTVSLQMHDLKPDDTAVYYCGAGLSPIARMDYWGQGTQVTVSS
B10: T2D2 (VHH)
VHH: QVQLAETGGGLVQPGGSLRLSCAASGFDFSRSTMSWVRQAPGKNIEWVSDINSGGGLTNYGDTVKDRFTISRDNAKNTLYLQMNSLDVEDTAVYYCVKGMWITSDQPRGQGTQVTVSS
B11: T2D9 (VHH)
VHH: QLQLVESGGGLVQPGGSLRLSCVLSGSDLAYYNVGWFRQAPGKEREGVACTSRVSDTKYYADSVKARFTVARDNAKNTVNLQMSSLRPEDTAVYSCALLRWCTTEDSDSEGMGHWGKGTLVTVSS
B12: T2D10 (VHH)
VHH: QVQLAETGGGLVQAGGSLRLSCAASGLTSSRYAMAWFRQVPGLEREFVASMTGSGGRTFYADSVKGRFTISRDNAKNTVYLQMNNLNPEDTAVYYCAVEYRDSGTRWSNEYDYWGQGTQVTVSS
B13: T2G6 (VHH)
VHH: QVQLVESGGGLVQAGGSLRLSCAASGFTFDDYAIGWFRQAPGKEREMILCINSRSGSTSYYADSVKGRFTVSVNSAKNTAYLQMNSLKPEDTAVYYCAADVTHPHSCNALDAWGQGTLVTVSS
B14: T2H1 (VHH)
VHH: B13 VHH with M47Q, R54N, S55R, G56A, S57R, D63E, V65I, A80V
B15: T2G7 (VHH)
VHH: B13 VHH with L11S, S55A, S57M, Y61S, V94K
B16: T2H5 (VHH)
VHH: QVQLVETGGGLVQAGGSLRLSCTASGFTFDEYAIGWFRQAPGKEREMILCISSVGGSTYYADSVKGRFTISSDNAKNTMYLQMSSLKPEDTAKYYCAVDVTPPHSCNALDTWGQGTLVTVSS
B17: T2E12 (VHH)
VHH: QVQLAESGGGLVQAGGSLRLSCAASGFTFDDYAVAWFRQAPGKAREMVLCISSSGGSSYYADFVKGRFTVPSNSAKNTVYLQMNSLKPEDTAKYICAVDATYPHSCNALDAWGQGTLVTVSS
B18: T2C7 (VHH)
VHH: QLQLAESGGGLVQAGGSLRLSCVVSGRTDSSYAVGWFRQAPGKEREFVAAIMWSGISTYYADSVKGRFTISLDNAKSTVYVQMNSLKPEDTAVYYCAAWKGATVTDDDPWGQGTQVTVSS
B19: T2B12 (VHH)
VHH: QLQLVESGGGSVQAGGSLRLSCAASGFTFGDYAIAFFRQAPGKEREGVSCISTYDGSTYYGDSVKGRFTISSDNAKNTVYLQMNSLKPEDTAVYYCAADRADCGWYYPYDYWGQGTQVTVSS
B20: T2D8 (VHH)
VHH: QLQLVESGGGLVQPGGSLRLSCAASGFTLDYYAIGWFRQAPGKEREWVSCLGRSSSSTSYVADSVQGRFTISRDNAKNTVYLQMNSLKPEDTAVYYCAADLSSQISSCNALDTWGQGTLVTVSS
B21: T2E11 (VHH)
VHH: QLQLVETGGGLVQPGGSLRLSCAASGFSLDYYAIGWFRQAPGKEREGVGCISSSGSTTKYADSVKGRFTISRDNAKNTVYLQMNSLKPEDTAVYYCAARNPADLNCGAYVLNGEYWGQGTQVTVPS
B22: T2C5 (VHH)
VHH: QVQLVETGGGLVQPGGSLRLSCATSGFTFSSTTMTWVRQAPGKGLEWLSGIYSDGRTEYADSVKGRFTISRDNAKNTLYLEMNSLKPEDTAVYFCAKGLLGAERGQGTRVTVSS
B23: T2H3 (VHH)
VHH: QVQLAESGGGLVQAGGSLRLSCVASGRTFDINTMAWYRQAPGKQRDFVASSYHGGITNYADSVKGRFTMSRDNAKNTVYLQMNSLKPEDTGVYYCTWRGGGVYWGQGTQVTVSS
B24: T2G4 (VHH)
VHH: QVQLVESGGGSLRLSCAVFGRTFSGDAVGWFRQAPGKEREFVAAINWNGRSTDYADSVKGRFTISRDDTENTVYLQMNSLKPEDTAVYYCATSREDYGSSFLRGSYDYLGQGTQVTVSS
notes: also called anti-PltB VHH T2G4; source: E. coli Rosetta-gami 2(DE3)pLacI, pET32b+, purified (Ni-NTA)
B25: T2E1 (VHH)
VHH: QVQLAESGGGFVQAGGSLRLSCVESGRSFSVFAMGWFRQAPGKERELVAAISWRGDSTYYADLVKGRFTISRDNAKNAVYLQMNSLKPEDTAVYYCAADRSDYVVTHEYDYWGQGTQVTISP
notes: also called anti-PltB VHH T2E1; source: E. coli Rosetta-gami 2(DE3)pLacI, pET32b+, purified (Ni-NTA)
B26: T2F2 (VHH)
VHH: QVQLAESGGGLVQAGGSLRLSCVASGRTFSSYAMGWFRRAPGKEREFVASILWSDGSAAYADSVEGRFTISRDNAKNTVHLQMNSLQPEDTAVYYCAAEARGSGTRWGNEYDYWGQGTQVTVSS
notes: also called anti-PltB VHH T2F2; source: E. coli Rosetta-gami 2(DE3)pLacI, pET32b+, purified (Ni-NTA)
B27: T2G1 (VHH)
VHH: B5 VHH with S11L, G44E, M47L, N52S, S72T, T74N, S85G, S87K
notes: also called anti-PltB VHH T2G1; source: E. coli Rosetta-gami 2(DE3)pLacI, pET32b+, purified (Ni-NTA)
B28: T2F3 (VHH)
VHH: B9 VHH with V5A, S28N, S30E, T31I, I54R, S61D, H84N, L100M
notes: also called anti-PltB VHH T2F3; source: E. coli Rosetta-gami 2(DE3)pLacI, pET32b+, purified (Ni-NTA)
B29: T2F7 (VHH)
VHH: QVQLVESGGGLVQPGGSLRLSCAASGFDFSRSTLSWVRQSPGKDFEWVSDINSGSTLTNYGDSVKGRFTTSRDNAKNTLYLQMNSLKPEDTAVYYCVKGMWITRDQPRGQGTQVTVSS
notes: also called anti-PltB VHH T2F7; source: E. coli Rosetta-gami 2(DE3)pLacI, pET32b+, purified (Ni-NTA)
B30: T2F11 (VHH)
VHH: B11 VHH with L2V, S7T, S84N, D106G
notes: also called anti-PltB VHH T2F11; source: E. coli Rosetta-gami 2(DE3)pLacI, pET32b+, purified (Ni-NTA)
B31: T2G11 (VHH)
VHH: QVQLVETGGLVQAGGSLSLSCAVSGRTFNLLHLAWFRQAPGNERDLVASISGSLGSVYYADSVRGRFTISRDAANNTVYLQMNSLKLEDTAVYYCAGAPIFDRFSSSSSSYDYWGQGTQVTVSS
notes: also called anti-PltB VHH T2G11; source: E. coli Rosetta-gami 2(DE3)pLacI, pET32b+, purified (Ni-NTA)
B32: T2F6 (VHH)
VHH: QLQLAESGGGLVQPGGSLRLSCAVSGFMVNSYDIGWFRQAPGKAREGISCINTSGDTPNYADSVKGRFTISRDNAKNMVYLQMNSLKPEDTATYFCAANRMTRCSDYNGYPYWGQGTQVIVSS
notes: also called anti-PltB VHH T2F6; source: E. coli Rosetta-gami 2(DE3)pLacI, pET32b+, purified (Ni-NTA)

What follows are binders tested against T1, PltB homopentamer, biotinylated (Salmonella enterica serovar Typhi; …, UniProt Q8Z6A3, biotinylated with EZ-link NHS-Biotin (sites not given)) (assay: not given). Conditions: not given.
B1: binds. B2: binds. B3: binds. B4: binds. B5: binds. B6: binds. B7: binds. B8: binds. B9: binds. B10: binds. B11: binds. B12: binds. B13: binds. B14: binds. B15: binds. B16: binds. B17: binds. B18: binds. B19: binds. B20: binds. B21: binds. B22: binds. B23: binds.

What follows are binders tested against T1, PltB homopentamer, biotinylated (assay: ELISA; […] (30 min, 37°C) […]). Conditions: both partners purified.
B24: binds. B25: binds. B26: binds. B27: binds. B28: binds. B29: binds. B30: binds. B31: binds. B32: binds.
